Values belong to the molecule of their own block, whether it stands above or below them.
Assays:
Assay in all cases: SEC-MALS; Superdex 200 5/150 GL; 100 mM Tris-HCl pH 8.0, 150 mM NaCl, 1 mM EDTA, 10% (v/v) glycerol; 0.15 mL/min; 90 µL of each sample at 1.6 mg/mL injected
[1] = target: Plastid-specific ribosomal protein 1a (PSRP1a) of Physcomitrium patens, mature form (Physcomitrium patens)
[2] = target: Plastid-specific ribosomal protein 1b (PSRP1b) of Physcomitrium patens, mature form (Physcomitrium patens)
[3] = target: the molecule itself

stoichiometry N [1]: 2
Molecule: Plastid-specific ribosomal protein 1a (PSRP1a) of Physcomitrium patens, mature form (natural protein)

stoichiometry N [2]: 2
Molecule: Plastid-specific ribosomal protein 1b (PSRP1b) of Physcomitrium patens, mature form (natural protein)

B1: Bacillus subtilis long-form hibernation-promoting factor (BsHPF) (natural protein, UniProt P28368 1-189, looked up)
chain: MNYNIRGENIEVTPALKDHVERKIGKLERYFDHSVDADVNVNLKFYNDKESKVEVTIPMTDLALRSEVHNEDMYNAIDLATNKLERQIRKHKTKVNRKFREQGSPKYLLANGLGSDTDIAVQDDIEEEESLDIVRQKRFNLKPMDSEEAILQMNMLGHNFFVFTNAETNLTNVVYRRNDGKYGLIEPTE
notes: Long-form hibernation-promoting factor (LHPF) of Bacillus subtilis, amplified from genomic DNA; predicted mass of the construct 24.2 kDa; Dimeric control protein of the SEC-MALS experiment; also called Bacillus subtilis LHPF
stoichiometry N [3]: 2
